doi:10.1101/2024.11.13.623522 (bioRxiv, 2024)

Target: T1, GST-tagged Shu (Shu-GST) (Drosophila, UniProt Q9W1I9 1-455)
T1 sequence (looked up): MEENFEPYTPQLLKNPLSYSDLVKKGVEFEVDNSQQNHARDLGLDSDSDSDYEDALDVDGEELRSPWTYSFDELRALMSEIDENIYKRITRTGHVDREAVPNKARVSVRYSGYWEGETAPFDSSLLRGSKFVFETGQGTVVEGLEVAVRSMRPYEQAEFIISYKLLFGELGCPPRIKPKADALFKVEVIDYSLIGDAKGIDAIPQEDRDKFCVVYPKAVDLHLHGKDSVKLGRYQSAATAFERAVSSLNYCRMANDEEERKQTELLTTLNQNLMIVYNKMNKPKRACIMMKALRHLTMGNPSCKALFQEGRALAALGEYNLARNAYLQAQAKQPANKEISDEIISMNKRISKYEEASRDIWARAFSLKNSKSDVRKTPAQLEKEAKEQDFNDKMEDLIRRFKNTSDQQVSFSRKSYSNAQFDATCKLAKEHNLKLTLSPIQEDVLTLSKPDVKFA
Assay: pull-down

B1: FLAG-tagged Armi S769I mutant, recombinant (natural protein, Drosophila, UniProt Q6J5K9 1-1188, looked up)
chain: MFTYVSKFFTNPDRNREDILESLDRENSFLDQKLMEEKMDQQLKANPNEINGVLSNKIAELTHGLSEMDVSKESSCTARKGVITSLDGDRGVIDKDVLFETKVAEDIILDLHVGCVVEYLTFTTGEAMRVVKVKSILEHSWEDTSQKEIEKAVDNLKNEKPTFFNTETRSVLGLISQRLASSIDVETEYGQLTVELDNIEMNFIPTNGDRVRLECNIQLDDGFVDKQGEILEVTKLFPTRIQEGEKCIVERVYVHMVVLGPETYILKTDLPTGTDLHLGDIVLADLIECQYSKFTRRAIKITPLEKNFGATKLTQQSSMGSSGSGKAVTVTGVNRFITAELWQKESVSLKLTNNLNRTLRLESITVCNDSESQLSVVSPLESKEISSGSEITVTFEIHTQFLGEAIEKYVLNFDLLKVRRVFTVIVCKTKEEVAEAEKRMIAAEALMAPGRNSQERSRFYANQVWCNKVDVIPGQQIVTKRRFVALRLGCFEVPKELRQICLTSERRQEMIKAIEQHYSFLTEPLSIKTYMHRFRLLLHLEEIECFVNFRNYDRDRAHFLRDGEFLTLQIENLAERRPSLVIGDTLRVINPWSDPDSQTTKSYEGIIHKVLFDRILLKFHSSFQEKYNGEDYRLEFYFSRYSFRKQHHAISKIVGVMGEDFLFPSKVTKRENPQLDVYMKDDDMYLYDSKLEWYNQSLNSIQKRAVFNILRGEAENIPYVLFGPPGSGKTMTLIETLLQLVRNLPGARILVGTPSNSSADLVTKRLIDIKALLQGDFIRLVSYNQVEKDLIPPEIMSYCATSDVGAVGSCEDKMMVTESGLKLRCQAKFIGTHRITISTCTTLGNFLQLGFPAGHFTHVLFDEAGQCTEPETMVPIVMLTKKRSQVVLSGDPRQLQSIVTSRIASKMGFSISFLERLLERSPYRKDLQRFPESSGYNPLVLTKLLYNYRALPSIMSIYSRLFYDDELIPVLSEKDSRESRLLSKLRCVFESEKDIPQAHGTFFYGIIGENRQNNDSPSWFNPQEVREVFLMTIALYRANVTADQIGIITPYQKQVKMLRSMFIGTDVVMPKIGSVEEFQGQERDIILISTVRSSEEILRMDARFSLGFVRCSKRLNVAVSRARAMMIIFGNPHLLAVDECWRQLILFCVKNNAYFGCDLPQMVINQKDEVPVCLETFVPSLNTTDDLN
Q: B1 was tested. Which “pull-down efficiency relative to Armi WT” value did it give?
A: The value was ~1.5 fold.
